Measured values reported in EP4653869A1 (Nantes Université, dated 2025).

T1: recombinant human interleukin-34 (IL-34) (human, UniProt Q6ZMJ4 21-242)
T1 construct: Bought recombinant protein; also called hIL34
T1 sequence (looked up): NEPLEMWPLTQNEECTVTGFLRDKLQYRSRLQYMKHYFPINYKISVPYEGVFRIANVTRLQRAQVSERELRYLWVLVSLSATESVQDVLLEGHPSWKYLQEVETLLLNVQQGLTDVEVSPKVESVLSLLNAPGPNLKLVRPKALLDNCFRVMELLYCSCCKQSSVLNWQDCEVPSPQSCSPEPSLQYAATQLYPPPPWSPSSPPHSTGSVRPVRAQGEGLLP

B1: recombinant human bone morphogenetic protein 7 (BMP-7) (ligand, UniProt P18075 293-431, looked up)
chain: STGSKQRSQNRSKTPKNQEALRMANVAENSSSDQRQACKKHELYVSFRDLGWQDWIIAPEGYAAYYCEGECAFPLNSYMNATNHAIVQTLVHFINPETVPKPCCAPTQLNAISVLYFDDSSNVILKKYRNMVVRACGCH
notes: Immobilized on a CM5 chip by amine coupling in the SPR assay
B2: recombinant human bone morphogenetic protein 2 (BMP-2) (ligand, UniProt P12643 283-396, looked up)
chain: QAKHKQRKRLKSSCKRHPLYVDFSDVGWNDWIVAPPGYHAFYCHGECPFPLADHLNSTNHAIVQTLVNSVNSKIPKACCVPTELSAISMLYLDENEKVVLKNYQDMVVEGCGCR
notes: as for B1
B3: recombinant human bone morphogenetic protein 4 (BMP-4) (ligand, UniProt P12644 293-408, looked up)
chain: SPKHHSQRARKKNKNCRRHSLYVDFSDVGWNDWIVAPPGYQAFYCHGDCPFPLADHLNSTNHAIVQTLVNSVNSSIPKACCVPTELSAISMLYLDEYDKVVLKNYQEMVVEGCGCR
notes: as for B1

These binders were tested against T1, recombinant human interleukin-34 (IL-34) (assay: SPR (Biacore T200), BMP immobilized on CM5 chip, IL-34 as analyte, single cycle titration, bivalent fitting model).

Row | Kd | koff | kon | Binder
1 | 922 nM | 0.0561 s⁻¹ | 60800 M⁻¹ s⁻¹ | B1
2 | 363 nM | 0.0229 s⁻¹ | 63100 M⁻¹ s⁻¹ | B2
3 | 426 nM | 0.0467 s⁻¹ | 110000 M⁻¹ s⁻¹ | B3
